Reference: article PMC4370734
Several values for one entry are separate records, joined by “and”; a condition that tells them apart may be missing. Identical values can stand only once. One block for each substance: values may come before it.

How the values were obtained:
Experiment in all cases: AUC; sedimentation velocity, 0.3 mg/mL, 20 mM Tris/HCl, 500 mM sodium chloride, 5 mM DTT, 0.4% CHAPS, pH 8.0, 42,000 rpm, 20°C; c(S) analysis with Sedfit; monomer, dimer, trimer and higher species
P42858 = test system: P42858
[1] = biological target: human full-length mutant Htt with 128Qs, C-terminally fused with a FLAG-His (FH) affinity tag (human) (UniProt P42858)
[2] = biological target: human full-length normal Htt with 17Qs, C-terminally fused with a FLAG-His affinity tag (human) (UniProt P42858)

Substance: human full-length mutant Htt with 128Qs, C-terminally fused with a FLAG-His (FH) affinity tag
fraction of aggregates (P42858): also of aggregates (23.6% versus 9.9%)

fraction of dimer [1]: 20%
fraction of monomer [1]: 35.6%
fraction of trimer [1]: 17.3%
stoichiometry N [1]: 2 and 3
Substance: human full-length mutant Htt with 128Qs, C-terminally fused with a FLAG-His (FH) affinity tag, P42858 1-3142

Substance: human full-length normal Htt with 17Qs, C-terminally fused with a FLAG-His affinity tag
fraction of aggregates (P42858): also of aggregates (23.6% versus 9.9%)

fraction of dimer [2]: 20%
fraction of monomer [2]: 52.1%
fraction of trimer [2]: 8.8%
stoichiometry N [2]: 2 and 3
Substance: human full-length normal Htt with 17Qs, C-terminally fused with a FLAG-His affinity tag, P42858 1-3142
